These results are taken from FireProtDB (doi:10.1016/j.jmb.2005.05.056).

B1: Small ribosomal subunit protein bS6, P23370 (parent)
chain: MRRYEVNIVLNPNLDQSQLALEKEIIQRALENYGARVEKVEELGLRRLAYPIAKDPQGYFLWYQVEMPEDRVNDLARELRIRDNVRRVMVVKSQEPFLANA

Variants of B1 are the subject of the data set. The following applies: Thermus thermophilus; pH 8; 25 °C; GdnHCl; Fluorescence; Tris-HCl 50 mM; reversible: No; structure 1RIS; whole UniProt chain shown.

Several values for one entry are separate records, joined by “and”; a condition that tells them apart may be missing. Equal entries are not always repeated.

Regarding MRRYEVNIVLNPNLDQSQLALEKEIAQRALENYGARVEKVEELGLRRLAYPIAKDPQGYFLWYQVEMPEDRVNDLARELRIRDNVRRVMVVKSQEPFLANA, the “ddG of mutation (higher = less stable)” value is 2.8 kcal/mol and 3 kcal/mol and 3.2 kcal/mol; the denaturant m value is 2.47 kcal/mol/M and 2.61 kcal/mol/M and 2.62 kcal/mol/M; the “denaturant midpoint (higher = more stable)” value (from here on “denaturant midpoint”) was 2.09 M and 2.46 M and 2.97 M; the unfolding free energy was 5.2 kcal/mol and 6.4 kcal/mol and 7.8 kcal/mol.
On to MRRYEVNIVLNPNLDQSQLALEKEIIQRALENYGARVEKVEELGLRRLAYPIAKDPQGYFLWYQVEMPEDRVNDAARELRIRDNVRRVMVVKSQEPFLANA, for which the “ddG of mutation (higher = less stable)” value was 0.9 kcal/mol and 0.8 kcal/mol and 0.7 kcal/mol; the denaturant m value is 3.13 kcal/mol/M and 2.95 kcal/mol/M and 3.19 kcal/mol/M; the “denaturant midpoint” value is 2.71 M and 2.95 M and 3.24 M; the unfolding free energy is 8.5 kcal/mol and 8.7 kcal/mol and 10.3 kcal/mol.
For the variant MRRYEVNIVLNPNLDQSQLALEKEIIQRALENYGARVEKVEELGLRRLAYPIAKDPQGYFLWYQAEMPEDRVNDLARELRIRDNVRRVMVVKSQEPFLANA, the denaturant m value was 2.61 kcal/mol/M and 2.77 kcal/mol/M and 2.84 kcal/mol/M.
With MRRYEVNIVLNPNLDQSQLALEKEIIQRALENAGARVEKVEELGLRRLAYPIAKDPQGYFLWYQVEMPEDRVNDLARELRIRDNVRRVMVVKSQEPFLANA, the denaturant m value was 2.83 kcal/mol/M and 3.26 kcal/mol/M and 2.34 kcal/mol/M; the “denaturant midpoint” value was 3.05 M and 3.65 M and 3.82 M; the unfolding free energy was 8.6 kcal/mol and 11.9 kcal/mol and 8.9 kcal/mol.
Regarding MRRYEVNIVLNPNLDQSQLALQKEIIQRALENYGARVEKVEELGLRRLAYPIAKDPQGYFLWYQVEMPEDRVNDLARELRIRDNVRRVMVVKSQEPFLANA, the unfolding free energy is 7.6 kcal/mol and 8.9 kcal/mol and 11.4 kcal/mol.
As to MRRYEVNIVLNPNLDQSQLALEKEIIQRALENYGGRVEKVEELGLRRLAYPIAKDPQGYFLWYQVEMPEDRVNDLARELRIRDNVRRVMVVKSQEPFLANA, the “ddG of mutation (higher = less stable)” value is 0.6 kcal/mol and 0.7 kcal/mol; the denaturant m value was 2.91 kcal/mol/M and 2.95 kcal/mol/M; the “denaturant midpoint” value is 3.03 M and 3.5 M; the unfolding free energy is 8.8 kcal/mol and 10.3 kcal/mol.
Consider MRRYEVNIVLNPNLDQSQLALEKEIIQRALENYGARVEKVEELGLRRLAYPIAKDPQGYFLWYQVEMPEDRVNDLARELRIRDNVRRAMVVKSQEPFLANA, for which the “ddG of mutation (higher = less stable)” value was 1.1 kcal/mol and 3 kcal/mol and 2 kcal/mol; the denaturant m value is 3.12 kcal/mol/M and 2.01 kcal/mol/M and 2.82 kcal/mol/M; the “denaturant midpoint” value was 2.66 M and 2.9 M and 3.2 M; the unfolding free energy was 8.3 kcal/mol and 6.5 kcal/mol and 9 kcal/mol.
With MRRYEVNIVLNPNLDQSQLALEKEIIQRALENYGARVEKVEELGLRRLAYPIAKDPQGYFLWYQVEMPEDRVNDLARELRIRDNARRVMVVKSQEPFLANA, the “ddG of mutation (higher = less stable)” value is 2.9 kcal/mol and 2.3 kcal/mol; the denaturant m value is 2.51 kcal/mol/M and 2.84 kcal/mol/M; the “denaturant midpoint” value was 2.05 M and 2.54 M; the unfolding free energy is 5.1 kcal/mol and 7.2 kcal/mol.
Regarding MRRYEVNAVLNPNLDQSQLALEKEIIQRALENYGARVEKVEELGLRRLAYPIAKDPQGYFLWYQVEMPEDRVNDLARELRIRDNVRRVMVVKSQEPFLANA, the “ddG of mutation (higher = less stable)” value was 2.9 kcal/mol and 4.4 kcal/mol; the denaturant m value was 2.78 kcal/mol/M and 2.44 kcal/mol/M and 2.83 kcal/mol/M; the “denaturant midpoint” value is 1.82 M and 2.05 M and 2.35 M; the unfolding free energy is 5.1 kcal/mol and 5 kcal/mol and 6.6 kcal/mol.
